Assay: Rat pharmacokinetics, IV and SC
Format: in vivo, Sprague Dawley rats
Details: for Vd / half-life / Tmax / bioavailability / clearance: Sprague-Dawley, rat, plasma
[1] = rats, IV, compared to PIE12-trimer

Structure (SMILES): CCCCCCCCCCCCCCCCSC1CC(=O)N(CCC(=O)NCCOCCOCCOCCOCCOCCOCCOCCOCCOCCOCCOCCOCCOCCOCCOCCOCCOCCOCCOCCOCCOCCOCCOCCOCCC(=O)NC(COCCC(=O)NCCOCCOCCOCCOCCC(=O)NCCCC[C@@H](NC(=O)CNC(=O)[C@@H](CC(C)C)NC(=O)[C@@H](CCC(=O)O)NC(=O)[C@H]2CSSC[C@@H](NC(=O)[C@H]3CCCN3C(=O)[C@@H](Cc3c[nH]cn3)NC(C)=O)C(=O)N[C@H](CC(=O)O)C(=O)N[C@H](Cc3ccc(O)cc3)C(=O)N3CCC[C@@H]3C(=O)N[C@H](CCC(=O)O)C(=O)N[C@H](Cc3c[nH]c4ccccc34)C(=O)N[C@H](CCC(N)=O)C(=O)N[C@H](Cc3c[nH]c4ccccc34)C(=O)N[C@H](CC(C)C)C(=O)N2)C(N)=O)(COCCC(=O)NCCOCCOCCOCCOCCC(=O)NCCCC[C@@H](NC(=O)CNC(=O)[C@@H](CC(C)C)NC(=O)[C@@H](CCC(=O)O)NC(=O)[C@H]2CSSC[C@@H](NC(=O)[C@H]3CCCN3C(=O)[C@@H](Cc3c[nH]cn3)NC(C)=O)C(=O)N[C@H](CC(=O)O)C(=O)N[C@H](Cc3ccc(O)cc3)C(=O)N3CCC[C@@H]3C(=O)N[C@H](CCC(=O)O)C(=O)N[C@H](Cc3c[nH]c4ccccc34)C(=O)N[C@H](CCC(N)=O)C(=O)N[C@H](Cc3c[nH]c4ccccc34)C(=O)N[C@H](CC(C)C)C(=O)N2)C(N)=O)COCCC(=O)NCCOCCOCCOCCOCCC(=O)NCCCC[C@@H](NC(=O)CNC(=O)[C@@H](CC(C)C)NC(=O)[C@@H](CCC(=O)O)NC(=O)[C@H]2CSSC[C@@H](NC(=O)[C@H]3CCCN3C(=O)[C@@H](Cc3c[nH]cn3)NC(C)=O)C(=O)N[C@H](CC(=O)O)C(=O)N[C@H](Cc3ccc(O)cc3)C(=O)N3CCC[C@@H]3C(=O)N[C@H](CCC(=O)O)C(=O)N[C@H](Cc3c[nH]c4ccccc34)C(=O)N[C@H](CCC(N)=O)C(=O)N[C@H](Cc3c[nH]c4ccccc34)C(=O)N[C@H](CC(C)C)C(=O)N2)C(N)=O)C1=O (stereo partly drawn) [C16-PIE12-trimer]
- Vd (iv): 0.137 L/kg
- half-life (iv): 0.9 h
- Tmax (sc): 1 h
- bioavailability (sc): 38%
- half-life (sc): 1.2 h
- increase in half-life upon IV or SC dosing (rats, compared to PIE12-trimer): < 2 fold
- reduction of clearance [1]: 5-8 fold

Structure (SMILES): CCCCCCCCCCCCCCCCCCSC1CC(=O)N(CCC(=O)NCCOCCOCCOCCOCCOCCOCCOCCOCCOCCOCCOCCOCCOCCOCCOCCOCCOCCOCCOCCOCCOCCOCCOCCOCCC(=O)NC(COCCC(=O)NCCOCCOCCOCCOCCC(=O)NCCCC[C@@H](NC(=O)CNC(=O)[C@@H](CC(C)C)NC(=O)[C@@H](CCC(=O)O)NC(=O)[C@H]2CSSC[C@@H](NC(=O)[C@H]3CCCN3C(=O)[C@@H](Cc3c[nH]cn3)NC(C)=O)C(=O)N[C@H](CC(=O)O)C(=O)N[C@H](Cc3ccc(O)cc3)C(=O)N3CCC[C@@H]3C(=O)N[C@H](CCC(=O)O)C(=O)N[C@H](Cc3c[nH]c4ccccc34)C(=O)N[C@H](CCC(N)=O)C(=O)N[C@H](Cc3c[nH]c4ccccc34)C(=O)N[C@H](CC(C)C)C(=O)N2)C(N)=O)(COCCC(=O)NCCOCCOCCOCCOCCC(=O)NCCCC[C@@H](NC(=O)CNC(=O)[C@@H](CC(C)C)NC(=O)[C@@H](CCC(=O)O)NC(=O)[C@H]2CSSC[C@@H](NC(=O)[C@H]3CCCN3C(=O)[C@@H](Cc3c[nH]cn3)NC(C)=O)C(=O)N[C@H](CC(=O)O)C(=O)N[C@H](Cc3ccc(O)cc3)C(=O)N3CCC[C@@H]3C(=O)N[C@H](CCC(=O)O)C(=O)N[C@H](Cc3c[nH]c4ccccc34)C(=O)N[C@H](CCC(N)=O)C(=O)N[C@H](Cc3c[nH]c4ccccc34)C(=O)N[C@H](CC(C)C)C(=O)N2)C(N)=O)COCCC(=O)NCCOCCOCCOCCOCCC(=O)NCCCC[C@@H](NC(=O)CNC(=O)[C@@H](CC(C)C)NC(=O)[C@@H](CCC(=O)O)NC(=O)[C@H]2CSSC[C@@H](NC(=O)[C@H]3CCCN3C(=O)[C@@H](Cc3c[nH]cn3)NC(C)=O)C(=O)N[C@H](CC(=O)O)C(=O)N[C@H](Cc3ccc(O)cc3)C(=O)N3CCC[C@@H]3C(=O)N[C@H](CCC(=O)O)C(=O)N[C@H](Cc3c[nH]c4ccccc34)C(=O)N[C@H](CCC(N)=O)C(=O)N[C@H](Cc3c[nH]c4ccccc34)C(=O)N[C@H](CC(C)C)C(=O)N2)C(N)=O)C1=O (stereo partly drawn) [C18-PIE12-trimer]
- Vd (iv): 0.227 L/kg
- clearance (iv): 2.5 mL/min/kg
- half-life (iv): 1.1 h
- Tmax (sc): 2 h
- bioavailability (sc): 94%
- half-life (sc): 1.4 h
- increase in half-life upon IV or SC dosing (rats, compared to PIE12-trimer): < 2 fold
- reduction of clearance [1]: 5-8 fold

Structure (SMILES): CC(=O)N[C@H](Cc1c[nH]cn1)C(=O)N1CCC[C@@H]1C(=O)N[C@@H]1CSSC[C@H](C(=O)N[C@H](CCC(=O)O)C(=O)N[C@H](CC(C)C)C(=O)NCC(=O)N[C@H](CCCCNC(=O)CCOCCOCCOCCOCCNC(=O)CCOCC(C)(COCCC(=O)NCCOCCOCCOCCOCCC(=O)NCCCC[C@@H](NC(=O)CNC(=O)[C@@H](CC(C)C)NC(=O)[C@@H](CCC(=O)O)NC(=O)[C@H]2CSSC[C@@H](NC(=O)[C@H]3CCCN3C(=O)[C@@H](Cc3c[nH]cn3)NC(C)=O)C(=O)N[C@H](CC(=O)O)C(=O)N[C@H](Cc3ccc(O)cc3)C(=O)N3CCC[C@@H]3C(=O)N[C@H](CCC(=O)O)C(=O)N[C@H](Cc3c[nH]c4ccccc34)C(=O)N[C@H](CCC(N)=O)C(=O)N[C@H](Cc3c[nH]c4ccccc34)C(=O)N[C@H](CC(C)C)C(=O)N2)C(N)=O)COCCC(=O)NCCOCCOCCOCCOCCC(=O)NCCCC[C@@H](NC(=O)CNC(=O)[C@@H](CC(C)C)NC(=O)[C@@H](CCC(=O)O)NC(=O)[C@H]2CSSC[C@@H](NC(=O)[C@H]3CCCN3C(=O)[C@@H](Cc3c[nH]cn3)NC(C)=O)C(=O)N[C@H](CC(=O)O)C(=O)N[C@H](Cc3ccc(O)cc3)C(=O)N3CCC[C@@H]3C(=O)N[C@H](CCC(=O)O)C(=O)N[C@H](Cc3c[nH]c4ccccc34)C(=O)N[C@H](CCC(N)=O)C(=O)N[C@H](Cc3c[nH]c4ccccc34)C(=O)N[C@H](CC(C)C)C(=O)N2)C(N)=O)C(N)=O)NC(=O)[C@@H](CC(C)C)NC(=O)[C@@H](Cc2c[nH]c3ccccc23)NC(=O)[C@@H](CCC(N)=O)NC(=O)[C@@H](Cc2c[nH]c3ccccc23)NC(=O)[C@@H](CCC(=O)O)NC(=O)[C@H]2CCCN2C(=O)[C@@H](Cc2ccc(O)cc2)NC(=O)[C@@H](CC(=O)O)NC1=O [PIE12-trimer]
- Vd (iv): 0.704 L/kg
- clearance (iv): 13.9 mL/min/kg
- half-life (iv): 0.6 h
- Tmax (sc): 0.5 h
- half-life (sc): 0.8 h

Structure (SMILES): CCCCCCCCCCCCCCCC(=O)N[C@H](CSC1CC(=O)N(CCC(=O)NCCOCCOCCOCCOCCOCCOCCOCCOCCOCCOCCOCCOCCOCCOCCOCCOCCOCCOCCOCCOCCOCCOCCOCCOCCC(=O)NC(COCCC(=O)NCCOCCOCCOCCOCCC(=O)NCCCC[C@@H](NC(=O)CNC(=O)[C@@H](CC(C)C)NC(=O)[C@@H](CCC(=O)O)NC(=O)[C@H]2CSSC[C@@H](NC(=O)[C@H]3CCCN3C(=O)[C@@H](Cc3c[nH]cn3)NC(C)=O)C(=O)N[C@H](CC(=O)O)C(=O)N[C@H](Cc3ccc(O)cc3)C(=O)N3CCC[C@@H]3C(=O)N[C@H](CCC(=O)O)C(=O)N[C@H](Cc3c[nH]c4ccccc34)C(=O)N[C@H](CCC(N)=O)C(=O)N[C@H](Cc3c[nH]c4ccccc34)C(=O)N[C@H](CC(C)C)C(=O)N2)C(N)=O)(COCCC(=O)NCCOCCOCCOCCOCCC(=O)NCCCC[C@@H](NC(=O)CNC(=O)[C@@H](CC(C)C)NC(=O)[C@@H](CCC(=O)O)NC(=O)[C@H]2CSSC[C@@H](NC(=O)[C@H]3CCCN3C(=O)[C@@H](Cc3c[nH]cn3)NC(C)=O)C(=O)N[C@H](CC(=O)O)C(=O)N[C@H](Cc3ccc(O)cc3)C(=O)N3CCC[C@@H]3C(=O)N[C@H](CCC(=O)O)C(=O)N[C@H](Cc3c[nH]c4ccccc34)C(=O)N[C@H](CCC(N)=O)C(=O)N[C@H](Cc3c[nH]c4ccccc34)C(=O)N[C@H](CC(C)C)C(=O)N2)C(N)=O)COCCC(=O)NCCOCCOCCOCCOCCC(=O)NCCCC[C@@H](NC(=O)CNC(=O)[C@@H](CC(C)C)NC(=O)[C@@H](CCC(=O)O)NC(=O)[C@H]2CSSC[C@@H](NC(=O)[C@H]3CCCN3C(=O)[C@@H](Cc3c[nH]cn3)NC(C)=O)C(=O)N[C@H](CC(=O)O)C(=O)N[C@H](Cc3ccc(O)cc3)C(=O)N3CCC[C@@H]3C(=O)N[C@H](CCC(=O)O)C(=O)N[C@H](Cc3c[nH]c4ccccc34)C(=O)N[C@H](CCC(N)=O)C(=O)N[C@H](Cc3c[nH]c4ccccc34)C(=O)N[C@H](CC(C)C)C(=O)N2)C(N)=O)C1=O)C(=O)O (stereo partly drawn) [Palm-PIE12-trimer]
- Vd (iv): 0.144 L/kg
- half-life (iv): 1.8 h
- Tmax (sc): 1 h
- half-life (sc): 2.2 h
- increase of IV half-life [1]: 3 fold
- reduction of clearance [1]: 14-18 fold
- extension of apparent half-life upon SC dosing (rats, SC, based on terminal-phase elimination, compared to PIE12-trimer): ~ 3 fold
